# The supplement of paper PMC6757056
# ± gives the standard deviation of the averaged measurements.
# B1: library; a variant is named by its letters at N, in order (parent)
# chain: GCUGUCACCGGAAUACCAGCAUCGUCUUGAUGCCCUUGGAAGUCCGGUCUGAUGAGUCCNNNNNGGACGAAACAGC
# Tests used:
# theophylline [1] = variants of: B1; test: FACS-Seq fitted mean relative fluorescence mCherry/BFP without ligand (log10 relative fluorescence); higher = higher reporter protein expression; settings: HEK293T, ligand present: no
# Description: (§1)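 Hammerhead (sTRSV) ribozyme switch libraries with a ligand aptamer grafted on stem I and a randomized N4-6 loop II, cloned into the 3' UTR of mCherry and transiently transfected into HEK293T cells; RNA-Seq 72 h post transfection with ligand added 1 h before transfection; RNA read count / plasmid DNA read count normalized to the non-cleaving sTRSVctl (x100), log10; sequences with >100 DNA reads. FACS-Seq: lentiviral library sorted into 6 bins after 48 h ligand, log-normal fit mean of mCherry/BFP scaled to controls. Printed sequences are partial switch sequences.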
# theophylline [2] = variants of: B1; test: normalized RNA/DNA level with ligand (relative to sTRSVctl = 100) (log10 (% of sTRSVctl)); higher = less ribozyme self-cleavage, higher mRNA level; settings: ligand concentration (+) RNA-Seq: 5 mM, HEK293T, reporter: mCherry (pCS4076), ligand present: yes
# Description: as §1
# theophylline [3] = variants of: B1; test: normalized RNA/DNA level without ligand (relative to sTRSVctl = 100) (log10 (% of sTRSVctl)); higher = less ribozyme self-cleavage, higher mRNA level; settings: HEK293T, reporter: mCherry (pCS4076), ligand present: no
# Description: as §1
# theophylline [4] = variants of: B1; test: FACS-Seq fitted mean relative fluorescence mCherry/BFP with ligand (log10 relative fluorescence); ligand concentration (+) FACS-Seq: 1 mM; higher = higher reporter protein expression; settings: HEK293T, ligand present: yes
# Description: as §1
Variant,FACS-Seq fitted mean (log10) (theophylline [1]),normalized RNA/DNA level with ligand (log10) (theophylline [2]),normalized RNA/DNA level without ligand (log10) (theophylline [3]),FACS-Seq fitted mean (log10) (theophylline [4])
GACUU,0.702 ± 0.12,2.1 ± 0.051,1.79 ± 0.038,0.696 ± 0.051
GACUG,0.5397 ± 0.0016,1.98 ± 0.076,1.804 ± 0.0069,0.61 ± 0.081
UACAC,0.83 ± 0.034,1.98 ± 0.02,1.99 ± 0.025,0.695 ± 0.097
UACAU,0.684 ± 0.015,2.03 ± 0.17,1.91 ± 0.14,0.722 ± 0.0088
UACAG,1.02 ± 0.041,1.96 ± 0.051,1.908 ± 0.018,0.918 ± 0.052
UACAA,0.427 ± 0.022,1.972 ± 0.012,1.6 ± 0.032,0.553 ± 0.018
GACAU,0.478 ± 0.063,2.04 ± 0.032,1.859 ± 0.0069,0.576 ± 0.07
GACAG,0.769 ± 0.29,1.952 ± 0.0094,1.77 ± 0.055,0.612 ± 0.13
GACAA,0.619 ± 0.048,1.938 ± 0.019,1.56 ± 0.022,0.731 ± 0.017
AAUCC,0.844 ± 0.012,2.04 ± 0.052,1.95 ± 0.07,0.808 ± 0.05
AAUCA,0.1911 ± 0.00077,1.9026 ± 0.0018,1.7 ± 0.029,0.221 ± 0.08
CAAGC,0.66 ± 0.031,1.96 ± 0.064,1.99 ± 0.079,0.543 ± 0.046
CAAGU,0.759 ± 0.043,1.976 ± 0.016,1.94 ± 0.067,0.761 ± 0.14
CAAGA,0.32 ± 0.031,1.97 ± 0.023,1.56 ± 0.15,0.3733 ± 0.0017
UAGGA,0.042 ± 0.047,1.958 ± 0.0077,1.55 ± 0.063,0.302 ± 0.044
GAUCG,1.12 ± 0.081,1.9 ± 0.031,1.78 ± 0.05,1.17 ± 0.094
UAUCC,0.705 ± 0.11,2.007 ± 0.016,2.02 ± 0.14,0.572 ± 0.019
CAAUC,0.844 ± 0.034,1.94 ± 0.053,1.83 ± 0.13,0.825 ± 0.014
CAAUU,0.59 ± 0.019,2.02 ± 0.033,1.65 ± 0.096,0.775 ± 0.021
CAAUA,0.192 ± 0.018,1.96 ± 0.054,1.16 ± 0.17,0.785 ± 0.033
GACGG,0.642 ± 0.057,1.93 ± 0.045,1.71 ± 0.11,0.887 ± 0.096
GACGU,0.7517 ± 0.0053,1.93 ± 0.027,1.64 ± 0.15,1.03 ± 0.022
GAAGG,0.991 ± 0.26,1.87 ± 0.011,1.72 ± 0.12,0.957 ± 0.057
GAAGA,0.532 ± 0.0054,1.89 ± 0.051,1.46 ± 0.36,0.761 ± 0.092

Variant,FACS-Seq fitted mean (log10) (theophylline [1]),normalized RNA/DNA level with ligand (log10) (theophylline [2]),normalized RNA/DNA level without ligand (log10) (theophylline [3]),FACS-Seq fitted mean (log10) (theophylline [4])
GAAGU,0.25 ± 0.013,1.94 ± 0.12,1.68 ± 0.17,0.483 ± 0.031
GACCU,1.03 ± 0.1,1.99 ± 0.064,1.95 ± 0.06,1.03 ± 0.15
CAGCC,0.864 ± 0.054,2 ± 0.035,1.97 ± 0.025,0.846 ± 0.13
CAGCA,0.319 ± 0.011,1.88 ± 0.099,1.52 ± 0.1,0.461 ± 0.062
CAGCU,0.425 ± 0.0073,2.017 ± 0.019,1.75 ± 0.059,0.527 ± 0.0083
AAGGU,0.228 ± 0.0068,1.94 ± 0.047,1.72 ± 0.044,0.445 ± 0.067
AAGGA,0.338 ± 0.022,2 ± 0.025,1.43 ± 0.099,0.8561 ± 0.0071
AAGGG,0.3836 ± 0.0021,1.85 ± 0.028,1.75 ± 0.037,0.381 ± 0.037
AAGGC,0.518 ± 0.013,1.93 ± 0.046,1.89 ± 0.079,0.476 ± 0.023
CACGC,0.917 ± 0.026,2.04 ± 0.065,1.996 ± 0.013,1.04 ± 0.043
CACGA,0.805 ± 0.037,1.998 ± 0.0074,1.76 ± 0.036,0.917 ± 0.012
AAAUC,0.4981 ± 0.0025,1.89 ± 0.034,1.9 ± 0.099,0.511 ± 0.021
AAAUA,0.6481 ± 0.0057,1.99 ± 0.038,1.62 ± 0.16,0.806 ± 0.062
AAAUG,0.571 ± 0.038,2.03 ± 0.022,1.75 ± 0.054,0.607 ± 0.029
AAAUU,0.984 ± 0.045,2.02 ± 0.1,1.82 ± 0.082,1.05 ± 0.06
AACGG,0.852 ± 0.14,2 ± 0.049,1.8 ± 0.057,0.998 ± 0.083
AACGA,0.235 ± 0.038,1.96 ± 0.1,1.53 ± 0.17,0.536 ± 0.026
AACGU,0.773 ± 0.075,1.965 ± 0.017,1.793 ± 0.011,0.854 ± 0.2
AACGC,0.98544 ± 0.00052,2.135 ± 0.0047,1.94 ± 0.072,0.922 ± 0.023
CAGUA,0.206 ± 0.0074,1.95 ± 0.15,1.27 ± 0.084,0.675 ± 0.018
CAGUU,0.491 ± 0.036,2.06 ± 0.055,1.6287 ± 0.00046,0.76 ± 0.037
CAGUC,0.691 ± 0.085,1.94 ± 0.086,1.86 ± 0.14,0.68 ± 0.13
CAUCC,0.98 ± 0.04,2.04 ± 0.045,2 ± 0.12,1.162 ± 0.0037
AACUA,0.84 ± 0.078,2.01 ± 0.045,1.77 ± 0.053,1 ± 0.015

Variant,FACS-Seq fitted mean (log10) (theophylline [1]),normalized RNA/DNA level with ligand (log10) (theophylline [2]),normalized RNA/DNA level without ligand (log10) (theophylline [3]),FACS-Seq fitted mean (log10) (theophylline [4])
AACUU,1.01 ± 0.076,1.9847 ± 0.0011,1.89 ± 0.059,0.981 ± 0.015
AACUG,0.814 ± 0.11,2 ± 0.12,1.8 ± 0.18,0.939 ± 0.032
AACUC,0.94 ± 0.044,2.01 ± 0.11,1.916 ± 0.016,0.924 ± 0.031
UACGU,0.851 ± 0.024,2.022 ± 0.012,1.92 ± 0.014,0.816 ± 0.023
UACGC,0.81 ± 0.14,2.01 ± 0.038,1.98 ± 0.17,0.916 ± 0.039
UACGA,0.287 ± 0.021,2.07 ± 0.025,1.72 ± 0.097,0.324 ± 0.024
AAAGC,1.03 ± 0.054,2.03 ± 0.041,1.79 ± 0.043,1.04 ± 0.14
AAAGG,0.199 ± 0.022,1.976 ± 0.019,1.71 ± 0.033,0.426 ± 0.04
AAAGU,0.9033 ± 0.0058,1.923 ± 0.018,1.58 ± 0.018,1.1 ± 0.046
AAAGA,-0.192 ± 0.043,1.92 ± 0.08,1.32 ± 0.06,0.259 ± 0.0043
CAGGC,0.86 ± 0.039,2.06 ± 0.046,1.95 ± 0.03,0.813 ± 0.041
CAGGA,0.706 ± 0.028,2.01 ± 0.082,1.62 ± 0.25,0.799 ± 0.045
CAGGU,0.996 ± 0.18,2 ± 0.03,1.96 ± 0.041,0.848 ± 0.048
AACAU,0.214 ± 0.0061,1.93 ± 0.1,1.75 ± 0.067,0.439 ± 0.045
AACAG,0.587 ± 0.0063,1.855 ± 0.014,1.78 ± 0.055,0.677 ± 0.035
AACAC,0.834 ± 0.025,1.94 ± 0.048,1.91 ± 0.075,0.925 ± 0.089
AACAA,0.377 ± 0.039,1.99 ± 0.086,1.45 ± 0.25,0.704 ± 0.013
AACCU,0.83 ± 0.037,2.06 ± 0.1,1.949 ± 0.017,0.698 ± 0.016
AACCG,0.924 ± 0.031,2 ± 0.031,1.89 ± 0.071,1.13 ± 0.098
AACCC,0.867 ± 0.012,2.042 ± 0.014,1.97 ± 0.031,0.862 ± 0.045
AACCA,0.923 ± 0.12,2.001 ± 0.0053,1.82 ± 0.047,0.908 ± 0.065
CACAA,0.062 ± 0.032,2.014 ± 0.0084,1.56 ± 0.11,0.3195 ± 0.0011
CACAC,0.945 ± 0.11,2.02 ± 0.044,1.88 ± 0.11,1.03 ± 0.2
CACAU,0.589 ± 0.032,1.964 ± 0.0051,1.68 ± 0.099,0.693 ± 0.025
